Experiment [1] deals with T1, Nectin-4 on SK-BR-3 cells (UniProt Q96NY8 32-510, limits assumed).
T1 sequence (looked up): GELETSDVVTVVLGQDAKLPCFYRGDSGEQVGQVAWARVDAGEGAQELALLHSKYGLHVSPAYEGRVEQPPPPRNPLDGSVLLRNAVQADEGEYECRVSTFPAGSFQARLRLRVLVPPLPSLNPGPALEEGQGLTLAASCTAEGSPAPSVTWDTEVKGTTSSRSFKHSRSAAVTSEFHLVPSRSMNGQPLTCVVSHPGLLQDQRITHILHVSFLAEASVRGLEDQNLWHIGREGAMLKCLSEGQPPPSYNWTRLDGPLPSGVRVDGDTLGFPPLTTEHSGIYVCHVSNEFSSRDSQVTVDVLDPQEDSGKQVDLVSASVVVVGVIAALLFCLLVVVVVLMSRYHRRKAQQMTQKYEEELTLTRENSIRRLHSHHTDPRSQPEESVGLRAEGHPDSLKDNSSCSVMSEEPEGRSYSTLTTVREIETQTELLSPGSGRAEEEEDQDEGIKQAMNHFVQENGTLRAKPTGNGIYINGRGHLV
The experiment can be described thus: cell-based or functional assay.

Experiment [2] concerns the target T2, Human Nectin-4 (PVRL4 Protein, ECD, His Tag) (human, UniProt Q96NY8 32-349).
T2 construct: extracellular domain; Recombinant protein captured on nickel NTA plates; also called hNectin-4; PVRL4-His; not shown: His tag
T2 sequence (looked up): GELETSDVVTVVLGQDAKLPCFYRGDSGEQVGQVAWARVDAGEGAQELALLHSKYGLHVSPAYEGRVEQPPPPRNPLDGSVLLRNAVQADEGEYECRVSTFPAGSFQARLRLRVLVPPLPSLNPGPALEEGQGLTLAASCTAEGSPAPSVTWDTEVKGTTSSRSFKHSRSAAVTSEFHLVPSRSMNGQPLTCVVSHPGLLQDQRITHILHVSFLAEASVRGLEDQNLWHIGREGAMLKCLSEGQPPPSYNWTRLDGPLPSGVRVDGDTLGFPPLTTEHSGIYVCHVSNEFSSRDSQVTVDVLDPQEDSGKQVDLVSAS
The experiment can be described thus: ELISA; His-tagged Nectin-4 ECD on nickel NTA plates, detection with anti-human IgG-HRP. Here is the method: Nickel NTA plates (Pierce™ Nickel coated plated, ThermoScientific™) were washed three times prior to use. Human Nectin-4 (PVRL4 Protein, ECD, His Tag) was dissolved at a concentration of […] in 0.1% BSA in PBS (PBA). 100 μL was added to each well and incubated while shaking for 1 hour at room temperature. After removal, the plate was washed 3x with 0.05% Tween-20 in PBS (washing buffer). ADCs were diluted in 0.1% PBA to a final concentration of 8 μg/mL and 100 μL was added to each well (in triplo). ADCs were incubated for 1 h at room temperature. Prior to the addition of 100 μL 1:1000 dilution of secondary antibody (Goat anti-human IgG, HRP conjugate, Invitrogen) the plate was washed 3x with washing buffer. The plate was incubated again for 1 h at room temperature and subsequently washed 3x with washing buffer and 3x with PBS. Finally, 100 μL TMB ELISA substrate (1 Step™ Turbo TMB ELISA substrate, ThermoScientific™) was added and incubated for 1 minute. The absorbance of the colorimetric signal was measured with Infinite® M1000 (Tecan) at 652 nm. Data was plotted corrected for the background (see FIG. 8).

This note sets out measurements from patent publication US20250205353A1 (SYNAFFIX B V, published 2025).

B1: Enfortumab YTE-4 (other)
heavy: EVQLVESGGGLVQPGGSLRLSCAASGFTFSSYNMNWVRQAPGKGLEWVSYISSSSSTIYYADSVKGRFTISRDNAKNSLSLQMNSLRDEDTAVYYCARAYYYGMDVWGQGTTVTVSSASTKGPSVFPLAPSSKSTSGGTAALGCLVKDYFPEPVTVSWNSGALTSGVHTFPAVLQSSGLYSLSSVVTVPSSSLGTQTYICNVNHKPSNTKVDKRVEPKSCDKTHTCPPCPAPELLGGPSVFLFPPKPKDTLYITREPEVTCVVVDVSHEDPEVKFNWYVDGVEVHNAKTKPREEQYNSTYRVVSVLTVLHQDWLNGKEYKCKVSNKALPAPIEKTISKAKGQPREPQVYTLPPSREEMTKNQVSLTCLVKGFYPSDIAVEWESNGQPENNYKTTPPVLDSDGSFFLYSKLTVDKSRWQQGNVFSCSVMHEALHNHYTQKSLSLSPGK
light: DIQMTQSPSSVSASVGDRVTITCRASQGISGWLAWYQQKPGKAPKFLIYAASTLQSGVPSRFSGSGSGTDFTLTISSLQPEDFATYYCQQANSFPPTFGGGTKVEIKRTVAAPSVFIFPPSDEQLKSGTASVVCLLNNFYPREAKVQWKVDNALQSGNSQESVTEQDSKDSTYSLSSTLTLSKADYEKHKVYACEVTHQGLSSPVTKSFNRGEC
modifications: linker-payload 4 (BCN-HS-(vc-PABC-MMAE)2) clicked to 6-N3-GalNAc on the trimmed core GlcNAc of the heavy-chain glycan; average DAR 3.67
In the case of B1, the “IC50 (nM), in vitro cytotoxicity on SK-BR-3 cells (ATPlite luminescence)” value in experiment [1] was determined as 0.05 nM.

B2: enfortumab (I) (antibody, human IgG1, kappa)
heavy: not shown
light: B1 light
notes: IgG transiently expressed in CHO K1 cells; also called Ha22-2(2,4)6.1
As to B2, the binding result in experiment [2] was “binds”.

B3: enfortumab YTE (II) (antibody, human IgG1, kappa)
heavy: B1 heavy
light: B1 light
notes: also called enfortumab YTE mutant
With B3, in experiment [2], the binding result is given as “binds”.
